Holding throughout (assay): ITC; chromodomain at 100 µM, H3K9me3 peptide at approximately 1 mM; 20 mM Tris, pH 8.0, 25 mM NaCl, 2 mM β-mercaptoethanol; 20°C; MicroCal iTC200, sixteen 2.5 µl injections
Common to all, as to conditions: both partners purified
For orientation: In ITC the heat of successive injections is recorded.

Assay [1] deals with T1, Rhino chromodomain G31D (Rhino residues 20-90) (D. melanogaster, UniProt Q7JXA8 20-90, G31D).
T1 construct: Rhino (HP1d), D. melanogaster, chromodomain construct spanning residues 20-90, with G31D; also called Rhino^G31D chromodomain; source: E. coli BL21-CodonPlus (DE3)-RIPL, purified (Ni-NTA, Ulp1 cleavage, ion exchange, Superdex75); not shown: His6, N-terminal, cleaved; SUMO, N-terminal, cleaved
T1 sequence (looked up): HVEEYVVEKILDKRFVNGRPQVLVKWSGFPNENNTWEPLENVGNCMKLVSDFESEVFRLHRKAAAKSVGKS

Assay [2] concerns the target T2, Rhino chromodomain, wildtype construct (Rhino residues 20-90) (D. melanogaster, UniProt Q7JXA8 20-90).
T2 construct: Rhino (HP1d), D. melanogaster, chromodomain construct spanning residues 20-90; Expressed as His6-SUMO-RhinoCD in pET-28; the tag was removed with Ulp1 protease; also called RhinoCD; wildtype domain; source: E. coli BL21-CodonPlus (DE3)-RIPL, purified (Ni-NTA, Ulp1 cleavage, ion exchange, Superdex75); not shown: His6, N-terminal, cleaved; SUMO, N-terminal, cleaved
T2 sequence (looked up): T1 sequence (looked up) with D12G

In assay [3] the target is T3, Rhino chromodomain G31A (Rhino residues 20-90) (D. melanogaster, UniProt Q7JXA8 20-90, G31A).
T3 construct: Rhino (HP1d), D. melanogaster, chromodomain construct spanning residues 20-90, with G31A; also called G31A mutant; source: E. coli BL21-CodonPlus (DE3)-RIPL, purified (Ni-NTA, Ulp1 cleavage, ion exchange, Superdex75); not shown: His6, N-terminal, cleaved; SUMO, N-terminal, cleaved
T3 sequence (looked up): T1 sequence (looked up) with D12A

Substitutions are numbered along the chain they refer to. Ends that are not written are not given here. Me3 = trimethyl (on lysine, trimethyl-lysine)

From PMC11245307, “Evolutionary adaptation of an HP1-protein chromodomain integrates chromatin and DNA sequence signals” (eLife, 2024) come the findings set out here.

B1: H3K9me3 peptide (KQTAR-K[me3]-STGGK) (peptide)
peptide: KQTARK(Me3)STGGK
notes: histone H3 N-terminal tail, K4 to K14 with K9 trimethylated; also called H3K9me3-modified histone tail peptide; synthetic H3K9me3 peptides; source: synthetic peptide; bought: AnaSpec, Inc
Consider B1, for which the Kd in assay [1] amounted to 31.1 ± 3.2 µM; in assay [2] it was 30.9 ± 3 µM; in assay [3], 43.5 ± 8.6 µM.

As a reminder, the Kd is the equilibrium constant for the complex coming apart. A higher Kd goes with a looser complex.
